Legend:
[1] = target: human ρ1 GABAC receptor (human) (UniProt P24046); experiment: flow cytometry on SHp5-ρ1 cells, antibody at 1/1,000 dilution
[2] = target: human ρ1 GABAC receptor (human) (UniProt P24046); experiment: flow cytometry on SHp5-ρ1 cells, antibody at 1/25 or 1/50 dilution

Sequence of UniProt P24046 (P24046 22-479): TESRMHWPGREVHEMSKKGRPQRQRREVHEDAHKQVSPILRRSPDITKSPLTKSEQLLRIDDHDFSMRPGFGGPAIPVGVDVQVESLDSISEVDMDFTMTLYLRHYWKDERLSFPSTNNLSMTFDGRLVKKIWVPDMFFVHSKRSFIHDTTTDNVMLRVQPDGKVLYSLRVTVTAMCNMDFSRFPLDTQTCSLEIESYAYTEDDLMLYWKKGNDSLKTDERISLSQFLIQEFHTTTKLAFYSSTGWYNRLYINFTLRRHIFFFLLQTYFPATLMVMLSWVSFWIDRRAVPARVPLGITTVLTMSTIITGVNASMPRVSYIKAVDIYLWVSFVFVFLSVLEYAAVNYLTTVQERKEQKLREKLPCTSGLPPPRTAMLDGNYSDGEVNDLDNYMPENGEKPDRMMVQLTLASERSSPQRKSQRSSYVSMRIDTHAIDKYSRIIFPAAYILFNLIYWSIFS

**Q.** “affinity-purified GABAC Ab N-14 (antibody)” was tested. Which percent positive cells [1] did it give?
**A.** Its percent positive cells is 47%.

**Q.** What about the percent positive cells [2] of the same substance?
**A.** The percent positive cells was 63%.
